No end group written: not given here.
Assay: Solubility of VS fragments in water
Assay type: physicochemical
Experimental: Accordingly, the VS48 is apt to be dissolved in a solvent directly without any assistance of solubilizers (such as a tag protein, TRX) and with no sediments being produced. The solvent can be any solutions comprising similar osmotic pressure to body's liquid of organisms (such as plasma), for example 0.85-0.9% saline. Preferably, the solvent is 0.85-0.90% saline, which is dramatically stable as store and is capable of being stored for one year under 4° C.

## GPDICGPGTKKVHVIFNYKGKNVLINKDIRCKDDEFTHLYTLIVRPDN (cysteines drawn unpaired) [VS48]
  solubility: 1000 µg/mL

— patent US20130296242A1, “MEDICATION AND THERAPY TREATING OF CHOROIDAL NEOVASCULARIZATION” (NATIONAL SUN YAT-SEN UNIVERSITY, priority 2012, published 2013)
